T1: APBA1_2, Q02410
T1 sequence (Q02410 742-832, limits assumed, looked up): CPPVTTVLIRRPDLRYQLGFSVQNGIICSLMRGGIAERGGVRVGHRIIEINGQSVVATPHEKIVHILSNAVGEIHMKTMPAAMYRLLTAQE

T2: DLG3_1, Q92796
T2 sequence (Q92796 125-227, limits assumed, looked up): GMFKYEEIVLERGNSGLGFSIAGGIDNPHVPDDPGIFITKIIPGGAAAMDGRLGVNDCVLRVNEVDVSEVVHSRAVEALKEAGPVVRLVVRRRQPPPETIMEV

T3: GRIP1_5, Q9Y3R0
T3 sequence (Q9Y3R0 568-668, limits assumed, looked up): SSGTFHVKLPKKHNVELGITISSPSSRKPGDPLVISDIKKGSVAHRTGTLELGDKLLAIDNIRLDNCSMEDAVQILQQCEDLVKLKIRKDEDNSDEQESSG

T4: LIN7A, O14910
T4 sequence (O14910 103-200, limits assumed, looked up): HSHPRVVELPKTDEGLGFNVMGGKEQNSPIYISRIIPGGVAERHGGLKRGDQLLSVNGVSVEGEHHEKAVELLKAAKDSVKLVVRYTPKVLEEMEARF

T5: LIN7C, Q9NUP9
T5 sequence (Q9NUP9 88-185, limits assumed, looked up): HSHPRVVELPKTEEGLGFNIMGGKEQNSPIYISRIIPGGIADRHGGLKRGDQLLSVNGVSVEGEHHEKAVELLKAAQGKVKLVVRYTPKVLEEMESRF

T6: PARD3B_1, Q8TEW8
T6 sequence (Q8TEW8 196-299, limits assumed, looked up): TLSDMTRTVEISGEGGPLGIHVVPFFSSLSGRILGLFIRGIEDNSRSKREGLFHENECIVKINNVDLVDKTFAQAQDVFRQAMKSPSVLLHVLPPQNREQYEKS

T7: RADIL, Q96JH8
T7 sequence (Q96JH8 971-1071, limits assumed, looked up): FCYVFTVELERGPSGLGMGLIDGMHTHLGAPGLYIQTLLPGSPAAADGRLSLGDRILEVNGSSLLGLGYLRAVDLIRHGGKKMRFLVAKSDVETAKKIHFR

T8: SHANK1, Q9Y566
T8 sequence (Q9Y566 658-767, limits assumed, looked up): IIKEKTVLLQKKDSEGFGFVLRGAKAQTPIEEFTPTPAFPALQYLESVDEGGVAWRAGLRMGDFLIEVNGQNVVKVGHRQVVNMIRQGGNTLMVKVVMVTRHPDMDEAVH

T9: SYNJ2BP, P57105
T9 sequence (P57105 8-110, limits assumed, looked up): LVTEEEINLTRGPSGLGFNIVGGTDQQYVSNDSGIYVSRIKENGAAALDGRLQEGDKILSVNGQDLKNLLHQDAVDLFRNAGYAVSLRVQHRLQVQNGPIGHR

T10: TJP3_3, O95049
T10 sequence (O95049 375-456, limits assumed, looked up): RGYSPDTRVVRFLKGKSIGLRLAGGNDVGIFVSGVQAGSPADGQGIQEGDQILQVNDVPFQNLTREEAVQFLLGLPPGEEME


What was measured:
Assay in all cases: holdup assay
Parameters in all cases: key: below the threshold = too weak to quantify, mostly under pKd 3.1 to 4
Conditions in all cases: plain residues with an end cap or a label only (N-terminal biotin on a linker: ado-ado)
[1] = molecular target: AHNAK1, Q09666
[2] = molecular target: T1, APBA1_2, Q02410
[3] = molecular target: DLG1_1, Q12959
[4] = molecular target: DLG2_2, Q15700
[5] = molecular target: T2, DLG3_1, Q92796
[6] = molecular target: DLG4_2, P78352
[7] = molecular target: GORASP1, Q9BQQ3
[8] = molecular target: T3, GRIP1_5, Q9Y3R0
[9] = molecular target: GRIP2_3, Q9C0E4
[10] = molecular target: HTRA2, O43464
[11] = molecular target: Inadl_1, Q8NI35
[12] = molecular target: Inadl_2, Q8NI35
[13] = molecular target: Inadl_9, Q8NI35
[14] = molecular target: T4, LIN7A, O14910
[15] = molecular target: T5, LIN7C, Q9NUP9
[16] = molecular target: MAGI1_1, Q96QZ7
[17] = molecular target: MAGI1_2, Q96QZ7
[18] = molecular target: MAGI2_5, Q86UL8
[19] = molecular target: MAST1, Q9Y2H9
[20] = molecular target: NHERF2_2, Q15599
[21] = molecular target: T6, PARD3B_1, Q8TEW8
[22] = molecular target: PARD3_3, Q8TEW0
[23] = molecular target: PTPN3, P26045
[24] = molecular target: T7, RADIL, Q96JH8
[25] = molecular target: T8, SHANK1, Q9Y566
[26] = molecular target: T9, SYNJ2BP, P57105
[27] = molecular target: T10, TJP3_3, O95049

Chain of Inadl_1, Q8NI35 (Q8NI35 113-229): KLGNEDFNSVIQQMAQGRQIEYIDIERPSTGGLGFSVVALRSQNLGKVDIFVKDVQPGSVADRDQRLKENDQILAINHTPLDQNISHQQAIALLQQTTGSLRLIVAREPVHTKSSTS
Chain of NHERF2_2, Q15599 (Q15599 142-238): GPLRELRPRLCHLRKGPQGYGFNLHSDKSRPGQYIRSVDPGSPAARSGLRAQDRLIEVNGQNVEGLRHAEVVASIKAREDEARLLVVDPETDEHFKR
Chain of HTRA2, O43464 (O43464 355-458): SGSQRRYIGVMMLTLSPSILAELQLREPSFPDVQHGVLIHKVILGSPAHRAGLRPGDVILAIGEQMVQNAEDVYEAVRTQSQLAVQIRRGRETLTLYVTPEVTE
Chain of DLG4_2, P78352 (P78352 155-259): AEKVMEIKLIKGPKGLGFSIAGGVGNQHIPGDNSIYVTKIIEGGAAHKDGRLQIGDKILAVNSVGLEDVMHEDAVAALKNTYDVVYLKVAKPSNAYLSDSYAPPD
Chain of DLG2_2, Q15700 (Q15700 189-283): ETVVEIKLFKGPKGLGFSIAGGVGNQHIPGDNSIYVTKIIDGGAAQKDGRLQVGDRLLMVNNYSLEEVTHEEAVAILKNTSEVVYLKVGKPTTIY
Chain of MAGI2_5, Q86UL8 (Q86UL8 915-1017): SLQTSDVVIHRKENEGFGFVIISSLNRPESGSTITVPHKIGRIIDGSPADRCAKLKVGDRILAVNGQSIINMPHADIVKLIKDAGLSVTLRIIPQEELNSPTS
Chain of GRIP2_3, Q9C0E4 (Q9C0E4 238-339): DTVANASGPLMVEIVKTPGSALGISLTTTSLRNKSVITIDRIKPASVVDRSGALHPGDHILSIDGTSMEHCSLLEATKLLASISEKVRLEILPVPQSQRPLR
Chain of PTPN3, P26045 (P26045 505-587): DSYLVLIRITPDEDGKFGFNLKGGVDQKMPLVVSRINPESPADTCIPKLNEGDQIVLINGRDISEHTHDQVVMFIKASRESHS
Chain of MAGI1_1, Q96QZ7 (Q96QZ7 1-106): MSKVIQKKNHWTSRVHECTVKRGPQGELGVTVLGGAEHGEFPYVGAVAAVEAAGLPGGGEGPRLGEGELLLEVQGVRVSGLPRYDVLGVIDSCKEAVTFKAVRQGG
Chain of Inadl_9, Q8NI35 (Q8NI35 1530-1615): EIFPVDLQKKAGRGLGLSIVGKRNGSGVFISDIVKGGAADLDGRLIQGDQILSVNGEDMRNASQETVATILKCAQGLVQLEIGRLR
Chain of GORASP1, Q9BQQ3 (Q9BQQ3 1-208): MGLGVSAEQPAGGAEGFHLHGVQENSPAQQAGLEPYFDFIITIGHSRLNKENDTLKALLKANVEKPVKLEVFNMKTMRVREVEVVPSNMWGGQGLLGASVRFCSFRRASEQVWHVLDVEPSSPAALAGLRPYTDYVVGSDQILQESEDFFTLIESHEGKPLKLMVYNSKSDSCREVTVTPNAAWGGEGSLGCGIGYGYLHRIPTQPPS
Chain of MAGI1_2, Q96QZ7 (Q96QZ7 456-580): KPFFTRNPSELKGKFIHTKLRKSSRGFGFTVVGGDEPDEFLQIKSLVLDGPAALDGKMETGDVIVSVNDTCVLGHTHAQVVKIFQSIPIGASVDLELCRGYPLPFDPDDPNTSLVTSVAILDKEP
Chain of AHNAK1, Q09666 (Q09666 4-100): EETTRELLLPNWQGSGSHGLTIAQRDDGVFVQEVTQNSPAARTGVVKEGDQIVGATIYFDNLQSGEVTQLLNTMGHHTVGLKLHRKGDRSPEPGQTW
Chain of PARD3_3, Q8TEW0 (Q8TEW0 582-685): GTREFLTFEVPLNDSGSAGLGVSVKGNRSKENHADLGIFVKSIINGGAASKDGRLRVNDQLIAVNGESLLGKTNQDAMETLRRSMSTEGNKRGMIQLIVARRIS
Chain of MAST1, Q9Y2H9 (Q9Y2H9 962-1065): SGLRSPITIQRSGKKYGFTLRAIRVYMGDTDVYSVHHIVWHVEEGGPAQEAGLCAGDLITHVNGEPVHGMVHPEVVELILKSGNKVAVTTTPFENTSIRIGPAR
Chain of Inadl_2, Q8NI35 (Q8NI35 238-335): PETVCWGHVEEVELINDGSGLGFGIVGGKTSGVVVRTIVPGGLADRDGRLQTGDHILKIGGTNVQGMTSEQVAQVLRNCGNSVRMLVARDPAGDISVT

Row | Binder | pKd [1] | pKd [2] | pKd [3] | pKd [4] | pKd [5] | pKd [6] | pKd [7] | pKd [8] | pKd [9] | pKd [10] | pKd [11] | pKd [12] | pKd [13] | pKd [14] | pKd [15] | pKd [16] | pKd [17] | pKd [18] | pKd [19] | pKd [20] | further results
1 | NNNVVKVDSV [MTNR1A, P48039] | below the threshold | 3.92 | below the threshold | below the threshold | below the threshold | below the threshold | below the threshold | below the threshold | below the threshold | below the threshold | below the threshold | below the threshold | below the threshold | below the threshold | below the threshold | below the threshold | below the threshold | below the threshold | below the threshold | below the threshold | pKd [21]: below the threshold; pKd [22]: below the threshold; pKd [23]: below the threshold; pKd [24]: below the threshold; pKd [25]: below the threshold; pKd [26]: below the threshold; pKd [27]: below the threshold
2 | NVYGIESVKI [GRIA2, P42262] | below the threshold | 3.68 | below the threshold | 3.5 | 3.5 | 3.73 | 3.58 | 3.5 | below the threshold | below the threshold | below the threshold | below the threshold | below the threshold | below the threshold | below the threshold | 3.59 | below the threshold | below the threshold | 4.27 | 3.71 | pKd [21]: 5.1; pKd [22]: 3.78; pKd [23]: below the threshold; pKd [24]: below the threshold; pKd [25]: 3.9; pKd [26]: 3.52; pKd [27]: below the threshold
3 | PSHPRLQTHV [KIRREL2, Q6UWL6] | below the threshold | 3.74 | 4.24 | 4.28 | 3.55 | 4.48 | below the threshold | below the threshold | below the threshold | below the threshold | below the threshold | below the threshold | below the threshold | below the threshold | 4 | below the threshold | 4.85 | 3.58 | 4.5 | below the threshold | pKd [21]: below the threshold; pKd [22]: below the threshold; pKd [23]: 4.13; pKd [24]: 3.73; pKd [25]: 3.84; pKd [26]: 4.48; pKd [27]: below the threshold

Now from value to binder, other results behind:

Row | pKd [1] | pKd [2] | pKd [3] | pKd [4] | pKd [5] | pKd [6] | pKd [7] | pKd [8] | pKd [9] | pKd [10] | pKd [11] | pKd [12] | pKd [13] | pKd [14] | pKd [15] | pKd [16] | pKd [17] | pKd [18] | pKd [19] | pKd [20] | Binder | further results
4 | below the threshold | below the threshold | below the threshold | below the threshold | below the threshold | below the threshold | below the threshold | below the threshold | below the threshold | below the threshold | below the threshold | below the threshold | below the threshold | below the threshold | below the threshold | below the threshold | below the threshold | 4.29 | below the threshold | 4.42 | TISFTQTSQF [SLC1A1, P43005] | pKd [21]: 4.24; pKd [22]: below the threshold; pKd [23]: 4.09; pKd [24]: below the threshold; pKd [25]: 4.61; pKd [26]: below the threshold; pKd [27]: below the threshold
5 | below the threshold | 4.1 | 4.05 | 3.88 | 3.61 | 4.18 | 3.59 | below the threshold | 3.56 | 3.55 | below the threshold | below the threshold | below the threshold | below the threshold | below the threshold | below the threshold | 4.5 | 3.95 | 5.06 | 4.76 | GIKKITSTAL [RPS6KA3, P51812] | pKd [21]: 4.05; pKd [22]: 3.51; pKd [23]: 5; pKd [24]: below the threshold; pKd [25]: 5.16; pKd [26]: 4.52; pKd [27]: below the threshold

From paper PMC9482650, “Quantitative fragmentomics allow affinity mapping of interactomes” (Nature Communications, 2022)
